doi:10.1101/2022.02.15.480489 (bioRxiv, 2022)

Target: the molecule itself
Assay: fluorescence correlation spectroscopy

B1: Ana2-mNG (Ana2 tagged with monomeric NeonGreen at the C-terminus, CRISPR/Cas9 knock-in at the endogenous locus) (natural protein)
chain: MFVPETEDMLPRLAPRPSAAVPMGHTNEIIGPTVPEVSILFGQPPQDPQMQPQQPNHAHQESSPRAAPTFASWKKQMLPRVNFSPILATELGPRTAPSSNSPCSSKEYQVMPRDRNYASDAQQTTNHMNCNAGGYNAEPKQQAYQSRRLSSSSNADVLTICAGTQTDPFNPSPPRKSLPQVVYSDIDVSNLANKSDLAALVSLVESVRHEQQQLRNLCEMILEQQQRAKPEAISKASSTTGTQCDILTTNQAGRRLSPIMQDYIAEEEEPLPPPQARVIPQFPSPRPHPPIAQSTGYRANTPQAKRIPQLAKPNTEKSMVMNELALKYLRQPVDELMKDMRLGASPKSPNPEPLRPIDNIGHAQSPNDISNASYKYLKKYRLLPEEQLEPVCPQSPMAATAPSPHIQLDLENIRNQPKLL
stoichiometry N: ~2

B2: mNG-Ana2 (Ana2 tagged with monomeric NeonGreen at the N-terminus, CRISPR/Cas9 knock-in at the endogenous locus) (natural protein)
chain: MFVPETEDMLPRLAPRPSAAVPMGHTNEIIGPTVPEVSILFGQPPQDPQMQPQQPNHAHQESSPRAAPTFASWKKQMLPRVNFSPILATELGPRTAPSSNSPCSSKEYQVMPRDRNYASDAQQTTNHMNCNAGGYNAEPKQQAYQSRRLSSSSNADVLTICAGTQTDPFNPSPPRKSLPQVVYSDIDVSNLANKSDLAALVSLVESVRHEQQQLRNLCEMILEQQQRAKPEAISKASSTTGTQCDILTTNQAGRRLSPIMQDYIAEEEEPLPPPQARVIPQFPSPRPHPPIAQSTGYRANTPQAKRIPQLAKPNTEKSMVMNELALKYLRQPVDELMKDMRLGASPKSPNPEPLRPIDNIGHAQSPNDISNASYKYLKKYRLLPEEQLEPVCPQSPMAATAPSPHIQLDLENIRNQPKLL
stoichiometry N: ~2
